Data as given in patent US20070031415A1 (published 2007).

B1: human p30 (RAPL), wild type (other)
chain: MTVDSSMSSGYCSLDEELEDCFFTAKTTFFRNAQSKHLSKNVCKPVEETQRPPTLQEIKQKIDSYNTREKNCLGMKLSEDGTYTGFIKVHLKLRRPVTVPAGIRPQSIYDAIKEVNLAATTDKRTSFYLPLDAIKQLHISSTTTVSEVIQGLLKKFMVVDNPQKFALFKRIHKDGQVLFQKLSIADRPLYLRLLAGPDTEVLSFVLKENETGEVEWDAFSIPELQNFLTILEKEEQDKIQQVQKKYDKFRQKLEEALRESQGKPG
notes: also called hp30; wild type p30

Columns and labels:
[1] = target: Rap1 (of the BAF cells, in chemokine-stimulated migration); test: cell-based or functional assay
[2] = target: T1, Rap1V12 (Rap1-activated mutant) (human, UniProt P62834 1-184, limits assumed); test: yeast two-hybrid screen, Rap1V12 as bait
T1 construct: also called active Rap1V12
T1 chain: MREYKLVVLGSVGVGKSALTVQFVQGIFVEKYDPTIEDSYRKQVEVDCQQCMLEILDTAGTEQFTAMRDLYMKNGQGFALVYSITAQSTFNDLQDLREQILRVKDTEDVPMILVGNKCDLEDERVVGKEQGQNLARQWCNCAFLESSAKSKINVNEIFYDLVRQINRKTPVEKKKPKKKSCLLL
Text: To identify a molecule that associates with Rap1, the human leukocyte cDNA library was screened by a yeast two-hybrid method using a Rap1-activated mutant Rap1V12 as bait. As a result, a molecule that encodes a protein of a molecular weight of 30,000 having a Ras/Rap binding domain (RBD) was isolated and termed as p30 (FIG. 1). […] It was found from an analysis of the human genome database that p30 is an alternative splicing product of Norel. Mouse p30 cDNA was also isolated by a RT-PCR method.

GTP-Rap1 = target: T2, GTP-Rap1 (human, UniProt P62833 1-184 (bovine entry), limits assumed); test: binding to GTP-Rap1, assay not detailed
T2 sequence: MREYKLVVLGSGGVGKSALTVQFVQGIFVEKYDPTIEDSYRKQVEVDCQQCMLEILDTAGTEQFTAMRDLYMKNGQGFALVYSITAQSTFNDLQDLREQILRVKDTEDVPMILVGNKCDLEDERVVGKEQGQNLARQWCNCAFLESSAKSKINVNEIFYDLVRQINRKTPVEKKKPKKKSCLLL

[3] = target: B1; test: association of Rap1V12 point mutants with p30, assay not detailed

Row | Binder | binding result [3] | other results
1 | B1 |  | cell migration on ICAM-1 in the presence of SDF-1 (CXCL12) (20 nM) [1]: ~2 fold; binding result [2]: binds
2 | p30RBDm (RBD-domain mutant of p30) (other) MTVDSSMSSGYCSLDEELEDCFFTAKTTFFRNAQSKHLSKNVCKPVEETQRPPTLQEIKQKIDSYNTREKNCLGMKLSEDGTYTGFIKVHLKLRRPVTVPAGIRPQSIYDAIKEVNLAATTDAATSFYLPLDAIAQLHISSTTTVSEVIQGLLAAFMVVAAPQKFALFKRIHKDGQVLFQKLSIADRPLYLRLLAGPDTEVLSFVLKENETGEVEWDAFSIPELQNFLTILEKEEQDKIQQVQKKYDKFRQKLEEALRESQGKPG |  | binding result (GTP-Rap1): no binding
3 | Rap1V12 E37G (enzyme, Point mutation in the effector region of the active Rap1V12) MREYKLVVLGSVGVGKSALTVQFVQGIFVEKYDPTIGDSYRKQVEVDCQQCMLEILDTAGTEQFTAMRDLYMKNGQGFALVYSITAQSTFNDLQDLREQILRVKDTEDVPMILVGNKCDLEDERVVGKEQGQNLARQWCNCAFLESSAKSKINVNEIFYDLVRQINRKTPVEKKKPKKKSCLLL | binds | 
4 | Rap1V12 Y40C (enzyme, Point mutation in the effector region of the active Rap1V12) MREYKLVVLGSVGVGKSALTVQFVQGIFVEKYDPTIEDSCRKQVEVDCQQCMLEILDTAGTEQFTAMRDLYMKNGQGFALVYSITAQSTFNDLQDLREQILRVKDTEDVPMILVGNKCDLEDERVVGKEQGQNLARQWCNCAFLESSAKSKINVNEIFYDLVRQINRKTPVEKKKPKKKSCLLL | no binding | 
5 | Rap1V12 T35E (enzyme, Point mutation in the effector region of the active Rap1V12) MREYKLVVLGSVGVGKSALTVQFVQGIFVEKYDPEIEDSYRKQVEVDCQQCMLEILDTAGTEQFTAMRDLYMKNGQGFALVYSITAQSTFNDLQDLREQILRVKDTEDVPMILVGNKCDLEDERVVGKEQGQNLARQWCNCAFLESSAKSKINVNEIFYDLVRQINRKTPVEKKKPKKKSCLLL | no binding | 
6 | Rap1V12 D38E (enzyme, Point mutation in the effector region of the active Rap1V12) MREYKLVVLGSVGVGKSALTVQFVQGIFVEKYDPTIEESYRKQVEVDCQQCMLEILDTAGTEQFTAMRDLYMKNGQGFALVYSITAQSTFNDLQDLREQILRVKDTEDVPMILVGNKCDLEDERVVGKEQGQNLARQWCNCAFLESSAKSKINVNEIFYDLVRQINRKTPVEKKKPKKKSCLLL | no binding | 
